Measurements: publication PMC3212559, “Large-Scale Protein-Protein Interaction Analysis in Arabidopsis Mesophyll Protoplasts by Split Firefly Luciferase Complementation” (PLoS ONE, 2011)

What was measured:
Assay in all cases: split reporter (BiFC, NanoBiT); SFLC in living Arabidopsis mesophyll protoplasts: Aux/IAA-FLucN or MYB30-FLucN co-expressed with ARFCTD-FLucC or Aux/IAA-FLucC for 6 hr; 10 µg of each construct, 2×10^4 cells, 96-well plate, D-luciferin; relative activity standardised against ARF5CTD-FLucC + IAA28-FLucN
Details in all cases: partners not purified
[1] = molecular target: T1, ARF9 C-terminal domain (CTD)-FLucC (Arabidopsis, UniProt Q9XED8 523-638)
T1 construct: Arabidopsis auxin response factor 9, C-terminal dimerization domain (CTD); In the ARF-ARF tests the same CTD stood both as ARFCTD-FLucC and as ARFCTD-FLucN; one molecule for both; also called ARF9CTD-FLucC; ARFCTD-FLucC; source: Arabidopsis mesophyll protoplasts, transfected, in living cells (SFLC) and in lysate (co-IP); not shown: FLucC (firefly luciferase aa 394-550)
T1 sequence (looked up): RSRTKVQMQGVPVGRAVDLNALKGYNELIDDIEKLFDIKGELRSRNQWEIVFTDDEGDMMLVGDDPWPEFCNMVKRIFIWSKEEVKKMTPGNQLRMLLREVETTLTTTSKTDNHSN

[2] = molecular target: T2, ARF6 C-terminal domain (CTD)-FLucC (Arabidopsis, UniProt Q9ZTX8 796-935)
T2 construct: In the ARF-ARF tests the same CTD stood both as ARFCTD-FLucC and as ARFCTD-FLucN; one molecule for both; also called ARF6CTD-FLucC; ARFCTD-FLucC; source: Arabidopsis mesophyll protoplasts, transfected, in living cells (SFLC) and in lysate (co-IP); not shown: FLucC (firefly luciferase aa 394-550)
T2 sequence (looked up): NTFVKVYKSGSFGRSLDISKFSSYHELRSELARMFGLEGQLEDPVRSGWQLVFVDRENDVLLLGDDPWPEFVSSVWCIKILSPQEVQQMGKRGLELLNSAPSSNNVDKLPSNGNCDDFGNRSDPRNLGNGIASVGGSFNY

[3] = molecular target: T3, IAA3-FLucC (Arabidopsis, UniProt Q38822 1-189)
T3 construct: Arabidopsis Aux/IAA protein IAA3; also called Aux/IAA-FLucC; source: Arabidopsis mesophyll protoplasts, transfected, in living cells; not shown: FLucC (firefly luciferase aa 394-550)
T3 sequence (looked up): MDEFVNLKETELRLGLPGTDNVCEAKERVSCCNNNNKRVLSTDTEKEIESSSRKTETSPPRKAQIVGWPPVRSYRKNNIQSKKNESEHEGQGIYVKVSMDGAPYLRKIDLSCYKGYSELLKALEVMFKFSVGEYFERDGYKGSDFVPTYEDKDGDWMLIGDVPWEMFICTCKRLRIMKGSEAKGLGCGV

[4] = molecular target: T4, ARF4 C-terminal domain (CTD)-FLucC (Arabidopsis, UniProt Q9ZTX9 665-788)
T4 construct: Arabidopsis auxin response factor 4, C-terminal dimerization domain (CTD); In the ARF-ARF tests the same CTD stood both as ARFCTD-FLucC and as ARFCTD-FLucN; one molecule for both; also called ARF4CTD-FLucC; ARFCTD-FLucC; source: Arabidopsis mesophyll protoplasts, transfected, in living cells (SFLC) and in lysate (co-IP); not shown: FLucC (firefly luciferase aa 394-550)
T4 sequence (looked up): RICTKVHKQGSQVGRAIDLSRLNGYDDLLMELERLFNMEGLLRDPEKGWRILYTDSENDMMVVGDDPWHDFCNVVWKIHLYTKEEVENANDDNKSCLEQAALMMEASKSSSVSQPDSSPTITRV

[5] = molecular target: T5, IAA1-FLucC (Arabidopsis, UniProt P49677 1-168)
T5 construct: Arabidopsis Aux/IAA protein IAA1; also called Aux/IAA-FLucC; source: Arabidopsis mesophyll protoplasts, transfected, in living cells; not shown: FLucC (firefly luciferase aa 394-550)
T5 sequence (looked up): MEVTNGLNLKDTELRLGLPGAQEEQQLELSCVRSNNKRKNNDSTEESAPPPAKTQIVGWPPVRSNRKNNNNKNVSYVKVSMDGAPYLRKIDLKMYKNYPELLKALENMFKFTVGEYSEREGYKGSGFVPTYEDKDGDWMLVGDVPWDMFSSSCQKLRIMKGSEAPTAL

[6] = molecular target: T6, IAA7-FLucC (Arabidopsis, UniProt Q38825 1-243)
T6 construct: Arabidopsis Aux/IAA protein IAA7; also called Aux/IAA-FLucC; source: Arabidopsis mesophyll protoplasts, transfected, in living cells; not shown: FLucC (firefly luciferase aa 394-550)
T6 sequence (looked up): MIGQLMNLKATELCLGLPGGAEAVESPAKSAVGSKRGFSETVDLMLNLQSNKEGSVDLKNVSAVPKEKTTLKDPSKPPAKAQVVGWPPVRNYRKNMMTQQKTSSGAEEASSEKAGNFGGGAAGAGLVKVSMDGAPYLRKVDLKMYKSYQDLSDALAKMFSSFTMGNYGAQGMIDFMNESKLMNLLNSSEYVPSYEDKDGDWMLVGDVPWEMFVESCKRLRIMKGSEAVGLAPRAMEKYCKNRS

Measured: relative luciferase activity (standardised against ARF5CTD-FLucC + IAA28-FLucN)

B1: MYB30-FLucN (natural protein, UniProt Q9SCU7 1-323, looked up)
chain: MVRPPCCDKGGVKKGPWTPEEDIILVTYIQEHGPGNWRAVPTNTGLLRCSKSCRLRWTNYLRPGIKRGNFTEHEEKMIVHLQALLGNRWAAIASYLPQRTDNDIKNYWNTHLKKKLNKVNQDSHQELDRSSLSSSPSSSSANSNSNISRGQWERRLQTDIHLAKKALSEALSPAVAPIITSTVTTTSSSAESRRSTSSASGFLRTQETSTTYASSTENIAKLLKGWVKNSPKTQNSADQIASTEVKEVIKSDDGKECAGAFQSFSEFDHSYQQAGVSPDHETKPDITGCCSNQSQWSLFEKWLFEDSGGQIGDILLDENTNFF
notes: transcription factor MYB30, the unrelated protein used as negative control; source: Arabidopsis mesophyll protoplasts, transfected, in living cells; not shown: FLucN (firefly luciferase aa 1-398)
< 0.1: all assays above
